Stoichiometry N data for one substance are collected here from publication PMC11979922.

In the test the target is HOL-30, β-galactoside-binding tandem-repeat galectin from the marine sponge Halichondria okadai (Halichondria okadai). Nature of the test: SEC.

In turn, “HOL-30, β-galactoside-binding tandem-repeat galectin from the marine sponge Halichondria okadai (natural protein)” showed a stoichiometry N of 2.
